We go through 167 variants from the RNAGym collection of RNA variant scans (doi:10.1073/pnas.2313332121).

B1: TPR t1 (parent)
chain: GACCAAUCUGCCCUCAGAGCUCGAGAACAUCUUCGGAUGCAGAGGAGGCAGGCUUCGGUGGCGCGAUAGCGCCAACGUCCUCAACCUCCAAUGCAUCCCACCACAUGAUGAUGCCUGAAGAGCCUUGGUUUUUUG

Variants of B1 are the subject of this data set. Briefly: polymerase ribozyme fitness, log enrichment relative to wild type (log ratio); higher = more active; in vitro selection for triplet polymerase activity. Put shortly: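 Mutant libraries of both subunits of a heterodimeric triplet polymerase ribozyme were PCR-built, transcribed, and selected once in triplicate, with frozen incubation at −7 °C and capture of gel-excised extended constructs on streptavidin beads before RT-PCR. Illumina sequencing of input and output libraries was filtered to genotypes with ≥10 input reads and ≥1 read per output. Fitness is the logarithm of genotype enrichment over wild-type enrichment, using inverse-variance-weighted replicate averages. The logarithm is base 2.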
With C70G C72U C123A U129G U133G, the “polymerase ribozyme fitness (log ratio)” value is -2.93.
The value for C82A G122A was -0.963.
Turning to A5G C49G G127C G128A, the “polymerase ribozyme fitness (log ratio)” value is -2.99.
The value for C8U A37C C53U was 0.264; that for G69U C98U C115A U130A was -1.03.
Turning to C12A A29U C86A, the “polymerase ribozyme fitness (log ratio)” value was -2.52.
With U14A U81A, the “polymerase ribozyme fitness (log ratio)” value was -4.19.
The value for G65U was -4.27; that for G45C C89U U133A was -1.58.
The value for A26U C82G was -4.82.
Turning to C15A C40A C56G, the “polymerase ribozyme fitness (log ratio)” value is -6.31.
For G10A G19A C70A U96A C104U, the “polymerase ribozyme fitness (log ratio)” value was -6.15.
As for A91C C114U, the “polymerase ribozyme fitness (log ratio)” value was -3.62.
The value for G69U U112A was 1.84.
The value for G42U U87C G128U U133A was -3.75; that for C34A C56A G93A C97U was -4.7; that for C12U C28A C40U C73U was -4.89.
The value for C12A C123A was 0.369; that for U7A C8A C13U C56U G61A C79U G120A was -4.91.
On to A66G G128C, for which the “polymerase ribozyme fitness (log ratio)” value is -3.65.
In the case of C72A U131A G135U, the “polymerase ribozyme fitness (log ratio)” value was 0.0704.
For A18G U67A C102U C123A, the “polymerase ribozyme fitness (log ratio)” value was -5.64.
The value for C3G C72A was -1.64; that for A43U C53G was -1.38; that for G47C G52C was -3.
In the case of U78C U81C, the “polymerase ribozyme fitness (log ratio)” value is -0.434.
The value for A6G C11A U109G A119C C123G U125C was -5.22; that for A83C U106C was -0.823; that for G36U G61A U78A was -0.679.
The value for C15A G71U A90U U106C A118U was -4.15; that for G39A C56A U130A U131C was -1.5; that for C56U C82A G120A G128A was -0.705.
The value for C28A U112A was -1.21; that for C13U C89A was -1.08.
Regarding C11G C56U A74U A84G G135U, the “polymerase ribozyme fitness (log ratio)” value is -1.8.
Regarding C8G A46U G63C, the “polymerase ribozyme fitness (log ratio)” value was -0.288.
The value for A6U C12U G110U was -1.97.
The value for C20U G42A C124G U126C G135U was -1.98; that for U7G C49A C123U was 0.939; that for A6C C8U C89U was -0.206.
The value for C11A C28G G77U C98U G110U G135U was -3.7.
U67C G110U: the “polymerase ribozyme fitness (log ratio)” value is -3.86.
For the variant G61A G63A, the “polymerase ribozyme fitness (log ratio)” value was -4.85.
The value for G93C C101A C104U was -2.05; that for C15G C86U G110A A118U was -3.91; that for A43U C49A C114G was -1.78.
Regarding G10A G52U C72G C99U, the “polymerase ribozyme fitness (log ratio)” value was -4.47.
For the variant U9G C62G C82A, the “polymerase ribozyme fitness (log ratio)” value was -0.591.
In the case of C70U U78A G120U G128A, the “polymerase ribozyme fitness (log ratio)” value was -2.18.
The value for U7G G71U C115A was 1.44.
The value for U67G C82A was -6.14.
In the case of G44A G60A A74U, the “polymerase ribozyme fitness (log ratio)” value was -0.926.
Consider C70U C102G A121G, for which the “polymerase ribozyme fitness (log ratio)” value was -5.14.
The value for C20G C73U A83C was -4.27; that for G36U G45C C89U U132A was -2.62.
With A2G G77A C80A C124A, the “polymerase ribozyme fitness (log ratio)” value is -0.514.
The value for U7G C15U C20U was -1.35; that for G52U C73G U92C C104U U116C U129A was -4.98; that for C13U C20U G61U C114A was 0.523.
The value for C11A A18U A26G G39U G42A G45A G60A U133A was -6.17; that for C53A C72G was 0.124.
With A26U G47A, the “polymerase ribozyme fitness (log ratio)” value was -4.24.
Regarding G45U C72G G93A, the “polymerase ribozyme fitness (log ratio)” value was -2.7.
The value for U81G was -3.8.
Regarding G71C U106A G113C, the “polymerase ribozyme fitness (log ratio)” value was -3.53.
The value for A26U C53A U78A G110A was -5.05.
The value for C12U C79G was -1.07.
The value for G35U C79A was -6.66.
With U55C G120U C123G U131A, the “polymerase ribozyme fitness (log ratio)” value is -0.058.
The value for C20G U125G was -4.91; that for G19A A43U C53U C56A was -3.04; that for C11U U106C was -0.678.
Turning to A50G C64U A84U, the “polymerase ribozyme fitness (log ratio)” value is -0.379.
For the variant G61U C73A U78A, the “polymerase ribozyme fitness (log ratio)” value was -1.43.
G10A C73A: the “polymerase ribozyme fitness (log ratio)” value was -0.58.
The value for C3U U9A was 0.706.
The value for U78C U87G was 0.287; that for U32G C97G A119G was -6.08; that for C11G A18C was -1.71.
The value for G39U G107U G117U was -6.23.
With G48A G69U C72U U126G G128A U132A, the “polymerase ribozyme fitness (log ratio)” value is -2.53.
The value for C49U C85G U96G was -2.99.
The value for C12U G47C C97G G120C was -3.35; that for A50G G71A was -1.41; that for G52A G63U was -2.08.
For C72G C82G A105C, the “polymerase ribozyme fitness (log ratio)” value is -4.16.
On to C8A C70U C88U, for which the “polymerase ribozyme fitness (log ratio)” value is -0.306.
The value for A43C G69U G110A was -1.54; that for C79U C94A C102A G120C was -2.46.
The value for A5U C53U U92A G113U was -4.65.
In the case of U112G U130A, the “polymerase ribozyme fitness (log ratio)” value worked out at 0.613.
The value for G69U C88G was -0.121.
The value for A43G C102A was -4.25; that for A75U C86U C88U was 0.294; that for C70U G71U was -0.437.
Regarding A6G A90G U112A, the “polymerase ribozyme fitness (log ratio)” value was found to be 1.69.
The value for C8A G110C was -3.59; that for U7C C70U was -1.31; that for C11G A37U G69A A83C A121C was -1.05.
As for A18U C28U A50U C98A, the “polymerase ribozyme fitness (log ratio)” value was -7.62.
For the variant U9C G122A, the “polymerase ribozyme fitness (log ratio)” value is -0.428.
The value for A26G G63A C124G was -0.0451.
As to G60U C115U, the “polymerase ribozyme fitness (log ratio)” value is -0.124.
The value for C53A G69U A105U was -0.0597; that for U14G G60C C70U was -3.06.
With C114G G117A, the “polymerase ribozyme fitness (log ratio)” value was -5.27.
The value for A46U A84U was -1.28; that for U55G G77C A100U G120C U131A was 0.465; that for G117C was -3.16.
The value for A27U was -2.89; that for U81G G110U G128A was -6.9.
With G19U G39U G93A U106C G120U, the “polymerase ribozyme fitness (log ratio)” value is -5.8.
The value for C31U A46C G113U A119G was -5.51; that for C53A U55A C88U C89U was -0.643; that for A2U C114U was -4.35.
Regarding C13G G52C C86U A118G, the “polymerase ribozyme fitness (log ratio)” value was -5.59.
As for C56U A90G, the “polymerase ribozyme fitness (log ratio)” value was determined as 0.117.
On to U92A G113A, for which the “polymerase ribozyme fitness (log ratio)” value was -2.8.
The value for C11A C12G C70A A111C was -3.93; that for C12U G39C G45U A100U U131G was -3.
The value for C8G G44U was -0.116; that for U9C A68G was -2.42.
The value for C15U A18G U59A G93C C104U was -5.54; that for G39C U55A C56A U112C was -0.17.
With C31A U32C C123G, the “polymerase ribozyme fitness (log ratio)” value is -3.17.
For the variant C114G G128U U129A, the “polymerase ribozyme fitness (log ratio)” value is -5.24.
Take G77U U92G C124U: the “polymerase ribozyme fitness (log ratio)” value is -1.84.
Take A37C G45U C123A: the “polymerase ribozyme fitness (log ratio)” value is -0.836.
The value for C40A A50U C88U U96C G120U was -4.53; that for U7A C11A U14G G45U C53U C70A G113A G120U U133A was -4.43.
The value for G36A U81A was -1.3; that for C11G C40U G63A was -1.18.
As to C3A C15A, the “polymerase ribozyme fitness (log ratio)” value was -3.67.
The value for G57A C76U A90U was -1.14; that for C11G A18G C49G C56U was -3.38.
The value for G39C U55G A119U was -0.691; that for C72U C86A was -0.584; that for U59C C89A A95C G113C was -4.48.
In the case of C11U U78A C97A, the “polymerase ribozyme fitness (log ratio)” value was -5.69.
The value for U81G U125A U131G was -4.64; that for A43C G48C was -2.99; that for A66C G117A A119U was -2.36.
For C34A G60C U112G U130A U133A, the “polymerase ribozyme fitness (log ratio)” value was -4.54.
C56A C62U C124U: the “polymerase ribozyme fitness (log ratio)” value came to 1.48.
The value for G36U G44C C70U was -2.13.
The value for A37U C56G C85U was -1.26.
The value for C3U C28A A41G C56U G120C was -5.25; that for G127C G128U U131C was -1.37.
In the case of C11U C22A C124U, the “polymerase ribozyme fitness (log ratio)” value was -3.19.
The value for A29U G120U was -0.652; that for A18C G120A was -1.48.
The value for G17U C114U U125A was -5.53; that for C56G C98A U112A C123A was -4.9.
The value for A43C U78C C88U G93A was -2.62; that for U96G G110U was -2.73.
As to A2C U38G C79G A121C, the “polymerase ribozyme fitness (log ratio)” value is -2.95.
With C13U U14G A16U G93U G120C, the “polymerase ribozyme fitness (log ratio)” value was -3.43.
In the case of C88G C104U C123G, the “polymerase ribozyme fitness (log ratio)” value came out at 1.53.
On to G42A C88A C98G G110C, for which the “polymerase ribozyme fitness (log ratio)” value is -6.29.
C11G C73G: the “polymerase ribozyme fitness (log ratio)” value is -0.268.
Regarding G63U U134G, the “polymerase ribozyme fitness (log ratio)” value is -1.64.
On to U54C C86G C88A C101U U129C, for which the “polymerase ribozyme fitness (log ratio)” value was -3.66.
The value for G61C U92A C98U C101U U106A U112G G120C was -7.61; that for G35A C88U A121U was -1.91; that for C56A C79A A95C C101U U129A was -4.76.
The value for G35A C49A G60U C86U C89A was -7.46.
The value for G120A C123A was -0.268.
